The source of these data is USRE49847 (dated 2024).

The target in test [1] is T1, soluble CD22-Fc (R&D Systems) (UniProt P20273 20-687).
T1 construct: Bought reagent used to stain CD22 CARs; not shown: Fc part; detected with anti-human IgG Fc-gamma secondary
T1 sequence (looked up): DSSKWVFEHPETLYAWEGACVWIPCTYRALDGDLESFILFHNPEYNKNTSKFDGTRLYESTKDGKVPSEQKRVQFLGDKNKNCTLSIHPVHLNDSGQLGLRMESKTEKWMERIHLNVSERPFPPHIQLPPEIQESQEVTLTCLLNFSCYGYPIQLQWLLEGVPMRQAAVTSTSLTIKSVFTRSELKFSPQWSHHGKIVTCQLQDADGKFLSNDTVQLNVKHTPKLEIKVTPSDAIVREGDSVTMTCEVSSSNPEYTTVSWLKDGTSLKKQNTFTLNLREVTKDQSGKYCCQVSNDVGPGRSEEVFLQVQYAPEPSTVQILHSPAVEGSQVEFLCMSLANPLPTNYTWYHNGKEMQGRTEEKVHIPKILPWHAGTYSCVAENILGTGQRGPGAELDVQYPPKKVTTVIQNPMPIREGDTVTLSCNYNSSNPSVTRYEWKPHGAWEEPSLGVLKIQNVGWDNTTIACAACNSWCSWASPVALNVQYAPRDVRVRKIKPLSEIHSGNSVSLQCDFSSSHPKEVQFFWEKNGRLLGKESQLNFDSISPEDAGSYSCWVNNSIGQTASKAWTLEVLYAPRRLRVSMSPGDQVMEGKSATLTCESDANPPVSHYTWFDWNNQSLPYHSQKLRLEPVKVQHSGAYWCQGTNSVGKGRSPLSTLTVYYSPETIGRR
Nature of the test: FACS surface staining of transduced JNL cells with CD22-Fc.

The target of test [2] is T1, soluble CD22-Fc (R&D Systems). Nature of the test: flow cytometry, soluble CD22-Fc plus anti-human Fc-PE on CAR-transduced primary T cells (FIG. 4). A general note: In flow cytometry, cells or beads pass a laser one at a time.

Where only a bound is given, the exact number is not on record here.

B1: control anti-CD22 CAR CG#c170 (other)
chain: EVQLQQSGPGLVKPSQTLSLTCAISGDSMLSNSDTWNWIRQSPSRGLEWLGRTYHRSTWYDDYASSVRGRVSINVDTSKNQYSLQLNAVTPEDTGVYYCARVRLQDGNSWSDAFDVWGQGTMVTVSSGGGGSQSALTQPASASGSPGQSVTISCTGTSSDVGGYNYVSWYQQHPGKAPKLMIYDVSNRPSGVSNRFSGSKSGNTASLTISGLQAEDEADYYCSSYTSSSTLYVFGTGTQLTVL
notes: the tie is by that description, not by a printed label; not shown: hinge, transmembrane, 4-1BB and CD3zeta parts of the CAR
For the molecule B1, the binding result in test [1] is “binds”.

B2: tandem CD22/CD19 CAR construct 185 (other)
chain: QSALTQPASASGSPGQSVTISCTGTSSDVGGYNYVSWYQQHPGKAPKLMIYDVSNRPSGVSNRFSGSKSGNTASLTISGLQAEDEADYYCSSYTSSSTLYVFGTGTQLTVLGGGGSGGGGSGGGGSEVQLQQSGPGLVKPSQTLSLTCAISGDSMLSNSDTWNWIRQSPSRGLEWLGRTYHRSTWYDDYASSVRGRVSINVDTSKNQYSLQLNAVTPEDTGVYYCARVRLQDGNSWSDAFDVWGQGTMVTVSSLAEAAAKEIVMTQSPATLSLSPGERATLSCRASQDISKYLNWYQQKPGQAPRLLIYHTSRLHSGIPARFSGSGSGTDYTLTISSLQPEDFAVYFCQQGNTLPYTFGQGTKLEIKGGGGSGGGGSGGGGSQVQLQESGPGLVKPSETLSLTCTVSGVSLPDYGVSWIRQPPGKGLEWIGVIWGSETTYYQSSLKSRVTISKDNSKNQVSLKLSSVTAADTAVYYCAKHYYYGGSYAMDYWGQGTLVTVSSTTTPAPRPPTPAPTIASQPLSLRPEACRPAAGGAVHTRGLDFACDIYIWAPLAGTCGVLLLSLVITLYCKRGRKKLLYIFKQPFMRPVQTTQEEDGCSCRFPEEEEGGCELRVKFSRSADAPAYQQGQNQLYNELNLGRREEYDVLDKRRGRDPEMGGKPRRKNPQEGLYNELQKDKMAEAYSEIGMKGERRRGKGHDGLYQGLSTATKDTYDALHMQALPPR
notes: Distal anti-CD22 scFv L/H, LAEAAAK, proximal anti-CD19 scFv; leader 1-21 left out; also called CG#c185; c185
Regarding B2, in test [1], the binding result is listed as “binds”.

B3: CD22-62 CAR (other)
chain: EVQLQQSGPGLVKPSQTLSLTCAISGDSVLSNSDTWNWIRQSPSRGLEWLGRTYHRSTWYDDYASSVRGRVSINVDTSKNQYSLQLNAVTPEDTGVYYCARDRLQDGNSWSDAFDVWGQGTMVTVSSGGGGSGGGGSGGGGSQSALTQPASVSGSPGQSITISCTGTSSDVGGYNYVSWYQQHPGKAPKLMIYDVSNRPSGVSNRFSGSKSGNTASLTISGLQAEDEADYYCSSYTSSSTLYVFGTGTKVTVL
notes: CAR on primary human T cells; not shown: hinge, transmembrane, 4-1BB and CD3zeta parts of the CAR
Turning to B3, the MFI in test [2] was above 20000.

B4: CD22-59 CAR (other)
chain: EVQLQQSGPGLVKPSQTLSLTCAISGDSVLSNSDTWNWIRQSPSRGLEWLGRTYHRSTWYDDYASSVRGRVSINVDTSKNQYSLQLNAVTPEDTGVYYCARDRLQDGNSWSDAFDVWGQGTMVTVSSGGGGSGGGGSGGGGSQSALTQPASVSGSPGQSITISCTGSSSDIGGFNYVSWYQQHAGEAPKLMIYEVTNRPSGVSDRFSGSKSDNTASLTISGLQAEDEADYYCSSYASGSPLYVFGTGTKVTVL
notes: as for B3
Regarding B4, the MFI in test [2] was above 20000.

B5: tandem CD22/CD19 CAR construct 186 (other)
chain: QSALTQPASASGSPGQSVTISCTGTSSDVGGYNYVSWYQQHPGKAPKLMIYDVSNRPSGVSNRFSGSKSGNTASLTISGLQAEDEADYYCSSYTSSSTLYVFGTGTQLTVLGGGGSGGGGSGGGGSEVQLQQSGPGLVKPSQTLSLTCAISGDSMLSNSDTWNWIRQSPSRGLEWLGRTYHRSTWYDDYASSVRGRVSINVDTSKNQYSLQLNAVTPEDTGVYYCARVRLQDGNSWSDAFDVWGQGTMVTVSSGGGGSEIVMTQSPATLSLSPGERATLSCRASQDISKYLNWYQQKPGQAPRLLIYHTSRLHSGIPARFSGSGSGTDYTLTISSLQPEDFAVYFCQQGNTLPYTFGQGTKLEIKGGGGSGGGGSGGGGSQVQLQESGPGLVKPSETLSLTCTVSGVSLPDYGVSWIRQPPGKGLEWIGVIWGSETTYYQSSLKSRVTISKDNSKNQVSLKLSSVTAADTAVYYCAKHYYYGGSYAMDYWGQGTLVTVSSTTTPAPRPPTPAPTIASQPLSLRPEACRPAAGGAVHTRGLDFACDIYIWAPLAGTCGVLLLSLVITLYCKRGRKKLLYIFKQPFMRPVQTTQEEDGCSCRFPEEEEGGCELRVKFSRSADAPAYQQGQNQLYNELNLGRREEYDVLDKRRGRDPEMGGKPRRKNPQEGLYNELQKDKMAEAYSEIGMKGERRRGKGHDGLYQGLSTATKDTYDALHMQALPPR
notes: Distal anti-CD22 scFv L/H, GGGGS, proximal anti-CD19 scFv; leader 1-21 left out; also called CG#c186; c186
For B5, the binding result in test [1] is “binds”.

B6: tandem CD22/CD19 CAR construct 188 (other)
chain: QSALTQPASASGSPGQSVTISCTGTSSDVGGYNYVSWYQQHPGKAPKLMIYDVSNRPSGVSNRFSGSKSGNTASLTISGLQAEDEADYYCSSYTSSSTLYVFGTGTQLTVLGGGGSEVQLQQSGPGLVKPSQTLSLTCAISGDSMLSNSDTWNWIRQSPSRGLEWLGRTYHRSTWYDDYASSVRGRVSINVDTSKNQYSLQLNAVTPEDTGVYYCARVRLQDGNSWSDAFDVWGQGTMVTVSSGGGGSEIVMTQSPATLSLSPGERATLSCRASQDISKYLNWYQQKPGQAPRLLIYHTSRLHSGIPARFSGSGSGTDYTLTISSLQPEDFAVYFCQQGNTLPYTFGQGTKLEIKGGGGSGGGGSGGGGSQVQLQESGPGLVKPSETLSLTCTVSGVSLPDYGVSWIRQPPGKGLEWIGVIWGSETTYYQSSLKSRVTISKDNSKNQVSLKLSSVTAADTAVYYCAKHYYYGGSYAMDYWGQGTLVTVSSTTTPAPRPPTPAPTIASQPLSLRPEACRPAAGGAVHTRGLDFACDIYIWAPLAGTCGVLLLSLVITLYCKRGRKKLLYIFKQPFMRPVQTTQEEDGCSCRFPEEEEGGCELRVKFSRSADAPAYQQGQNQLYNELNLGRREEYDVLDKRRGRDPEMGGKPRRKNPQEGLYNELQKDKMAEAYSEIGMKGERRRGKGHDGLYQGLSTATKDTYDALHMQALPPR
notes: Distal anti-CD22 scFv L/H short linker, GGGGS, proximal anti-CD19 scFv; leader 1-21 left out; also called CG#c188; c188
As for B6, in test [1], the binding result was “binds”.

B7: tandem CD22/CD19 CAR construct 184 (other)
chain: EVQLQQSGPGLVKPSQTLSLTCAISGDSMLSNSDTWNWIRQSPSRGLEWLGRTYHRSTWYDDYASSVRGRVSINVDTSKNQYSLQLNAVTPEDTGVYYCARVRLQDGNSWSDAFDVWGQGTMVTVSSGGGGSQSALTQPASASGSPGQSVTISCTGTSSDVGGYNYVSWYQQHPGKAPKLMIYDVSNRPSGVSNRFSGSKSGNTASLTISGLQAEDEADYYCSSYTSSSTLYVFGTGTQLTVLGGGGSEIVMTQSPATLSLSPGERATLSCRASQDISKYLNWYQQKPGQAPRLLIYHTSRLHSGIPARFSGSGSGTDYTLTISSLQPEDFAVYFCQQGNTLPYTFGQGTKLEIKGGGGSGGGGSGGGGSQVQLQESGPGLVKPSETLSLTCTVSGVSLPDYGVSWIRQPPGKGLEWIGVIWGSETTYYQSSLKSRVTISKDNSKNQVSLKLSSVTAADTAVYYCAKHYYYGGSYAMDYWGQGTLVTVSSTTTPAPRPPTPAPTIASQPLSLRPEACRPAAGGAVHTRGLDFACDIYIWAPLAGTCGVLLLSLVITLYCKRGRKKLLYIFKQPFMRPVQTTQEEDGCSCRFPEEEEGGCELRVKFSRSADAPAYQQGQNQLYNELNLGRREEYDVLDKRRGRDPEMGGKPRRKNPQEGLYNELQKDKMAEAYSEIGMKGERRRGKGHDGLYQGLSTATKDTYDALHMQALPPR
notes: Distal anti-CD22 scFv H/L short linker, GGGGS, proximal anti-CD19 scFv; leader 1-21 left out; also called CG#c184; c184
In the case of B7, the binding result in test [1] was “binds”.

B8: tandem CD22/CD19 CAR construct 187 (other)
chain: QSALTQPASASGSPGQSVTISCTGTSSDVGGYNYVSWYQQHPGKAPKLMIYDVSNRPSGVSNRFSGSKSGNTASLTISGLQAEDEADYYCSSYTSSSTLYVFGTGTQLTVLGGGGSEVQLQQSGPGLVKPSQTLSLTCAISGDSMLSNSDTWNWIRQSPSRGLEWLGRTYHRSTWYDDYASSVRGRVSINVDTSKNQYSLQLNAVTPEDTGVYYCARVRLQDGNSWSDAFDVWGQGTMVTVSSLAEAAAKEIVMTQSPATLSLSPGERATLSCRASQDISKYLNWYQQKPGQAPRLLIYHTSRLHSGIPARFSGSGSGTDYTLTISSLQPEDFAVYFCQQGNTLPYTFGQGTKLEIKGGGGSGGGGSGGGGSQVQLQESGPGLVKPSETLSLTCTVSGVSLPDYGVSWIRQPPGKGLEWIGVIWGSETTYYQSSLKSRVTISKDNSKNQVSLKLSSVTAADTAVYYCAKHYYYGGSYAMDYWGQGTLVTVSSTTTPAPRPPTPAPTIASQPLSLRPEACRPAAGGAVHTRGLDFACDIYIWAPLAGTCGVLLLSLVITLYCKRGRKKLLYIFKQPFMRPVQTTQEEDGCSCRFPEEEEGGCELRVKFSRSADAPAYQQGQNQLYNELNLGRREEYDVLDKRRGRDPEMGGKPRRKNPQEGLYNELQKDKMAEAYSEIGMKGERRRGKGHDGLYQGLSTATKDTYDALHMQALPPR
notes: Distal anti-CD22 scFv L/H short linker, LAEAAAK, proximal anti-CD19 scFv; leader 1-21 left out; also called CG#c187; c187
For B8, the binding result in test [1] was “binds”.

B9: control anti-CD22 CAR CG#c175 (other)
chain: QSALTQPASASGSPGQSVTISCTGTSSDVGGYNYVSWYQQHPGKAPKLMIYDVSNRPSGVSNRFSGSKSGNTASLTISGLQAEDEADYYCSSYTSSSTLYVFGTGTQLTVLGGGGSGGGGSGGGGSEVQLQQSGPGLVKPSQTLSLTCAISGDSMLSNSDTWNWIRQSPSRGLEWLGRTYHRSTWYDDYASSVRGRVSINVDTSKNQYSLQLNAVTPEDTGVYYCARVRLQDGNSWSDAFDVWGQGTMVTVSS
notes: not shown: hinge, transmembrane, 4-1BB and CD3zeta parts of the CAR
As to B9, in test [1], the binding result was “binds”.

B10: control anti-CD22 CAR CG#c176 (other)
chain: QSALTQPASASGSPGQSVTISCTGTSSDVGGYNYVSWYQQHPGKAPKLMIYDVSNRPSGVSNRFSGSKSGNTASLTISGLQAEDEADYYCSSYTSSSTLYVFGTGTQLTVLGGGGSEVQLQQSGPGLVKPSQTLSLTCAISGDSMLSNSDTWNWIRQSPSRGLEWLGRTYHRSTWYDDYASSVRGRVSINVDTSKNQYSLQLNAVTPEDTGVYYCARVRLQDGNSWSDAFDVWGQGTMVTVSS
notes: as for B9
Take B10: the binding result in test [1] is reported as “binds”.
